From article PMC5735301 (Oncogene, 2017) come the findings set out here.

This data set concerns the molecule itself.

Values joined by “and” are separate entries in the source; they are usually repeats but may differ in a detail not shown here. Equal values may be shown once.

B1: RXRα (protein of Supplementary Figure S1f; tetramer and dimer) (natural protein)
chain: MDTKHFLPLDFSTQVNSSLTSPTGRGSMAAPSLHPSLGPGIGSPGQLHSPISTLSSPINGMGPPFSVISSPMGPHSMSVPTTPTLGFSTGSPQLSSPMNPVSSSEDIKPPLGLNGVLKVPAHPSGNMASFTKHICAICGDRSSGKHYGVYSCEGCKGFFKRTVRKDLTYTCRDNKDCLIDKRQRNRCQYCRYQKCLAMGMKREAVQEERQRGKDRNENEVESTSSANEDMPVERILEAELAVEPKTETYVEANMGLNPSSPNDPVTNICQAADKQLFTLVEWAKRIPHFSELPLDDQVILLRAGWNELLIASFSHRSIAVKDGILLATGLHVHRNSAHSAGVGAIFDRVLTELVSKMRDMQMDKTELGCLRAIVLFNPDSKGLSNPAEVEALREKVYASLEAYCKHKYPEQPGRFAKLLLRLPALRSIGLKCLEHLFFFKLIGDTPIDTFLMEMLEAPHQMT
For B1, the “stoichiometry N” value is 4 and 2.
